Experimental findings from a protein production outcome set (Wang et al. 2014) are described below.

This series can be described thus: label from the status in PepcDB records.
On to “MASHIVGYPRMGPKRELKFALESFWDGKSSADDLQKVSADLRSDIWKQMSAAGIKYIPSNTFSHYDQVLDTTAMLGAVPSRYGFTSGEIGLDVYFSMARGNASVPAMEMTKWFDTNYHYIVPELGPEVKFSYASHKAVNEYKEAKALGVETVPVLVGPVSYLLLSKLAKGVDKSFDLLSLLPKILPVYKEVIAELKAAGASWIQLDEPLFVMDLEGHKLQAFSGAYAELESTLSGLNVLVETYFADIPAEAYKTLTSLKGVTAFGFDLVRGTKTIDLIKSGFPQGKYLFAGVVDGRNIWANDLAASLITLQSLEGVVGKDKLVVSTSCSLLHTAVDLINETKLDAEIKSWLAFAAQKVVEVDALAKALAGQTNESFFTANADALSSRRSSPRVTNESVQKAAAALKGSDHRRTTEVSARLDAQQKKLNLPILPTTTIGSFPQTVELRRVRREYKAKKISEEDYVKAIKEEIKKVVDIQEDLDIDVLVHGEPERNDMVEYFGEQLSGFAFTANGWVQSYGSRCVKPPVIYGDVSRPKPMTVFWSSTAQSMTKRPMKGMLTGPVTILNWSFVRNDQPRHETCYQIALAIKDEVEDLEKGGIGVIQIDEAALREGLPLRKAEHSFYLDWAVHSFRITNCGVQDSTQIHTHMCYSNFNDIIHSIIDMDADVITIENSRSDEKLLSVFREGVKYGAGIGPGVYDIHSPRIPSTDEIADRINKMLAVLEQNILWVNPDCGLKTRKYTEVKPALKAMVDAAKLIRSQLGSAK”, for which the protein production entry is on record as “failed”.

With “MASHLFTRSRISLLKTLKPNPFTSASPIRAISGTPFLSQDPLLATESTDHDPSNHQSTSTPLPPNPATGSPLYQENWRSPIPNTPSFNQSLVPLGFLNQAPAPRIRALSETLDMNSLLNMFADWTASQRWSDMKQLFEVWVRSLDKNGKPNKPDVNLYNHYLRANLMMGASAGDMLDLVAPMEEFSVEPNTASYNLVLKAMYQARETEAAMKLLERMLLLGKDSLPDDESYDLVIGMHFGVGKNDEAMKVMDTALKSGYMLSTSVFTECVRSCVAKGRTDTLVSIIERCKAVDRNKSLCPSWILCNYIAEVAIQEDNSKLAFYAFEFMFKWITRGEMARPSVIFSVDEGLVVAGLASAARTCSSSLVEGSWTILKQSLRGRKAANPASYIAKINAYASLGNLQKAFTSLHELESAYADSEKEVVEEMLSPFTSLYPLVVACSKKGFETLDEVYFQLESLSQGDTPYKSVAALNCIILGCANTWDLDRAYQTFEAISASFGLTPNIDSYNALLYAFGKVKKTFEATNVFEHLVSIGVKPDSRTYSLLVDAHLINRDPKSALTVVDDMIKAGFEPSRETLKKLRRRCVREMDDENDDQVEALAKKFQIRMGSENRRNMLFNIDYSRGRALNN”, the protein production entry is on record as “failed”.

Take “MASISNLIILLISFLIGWIILSIPVWLASKAVSRRSSFGNAMIVSLVSIVVYVVLSTFLHFIGAIIGIIIILLIIREIYNVGWGGAIVIGVLSLVIFVIIALILGALHLASLLI”: the protein production result is reported as “failed”.

Regarding “MASLISFWLFFALSLLQPQQRQFLASKPWQDWLLDGVSLGIQGAIIPLLQLLLVINFYSLIIPHWQHSFNLFAGGQFLLGFVAIDYVYYWSHRALHSKLLFPIHQVHHTVSQMDMVSCARNTFWSSLFLPYVWLNSLIIYLLHDARGYILAISCTYLLDLWRHSSLIINKKCWLHDCLNSWLILPQDHGLHHHQIGKGNFGANLKLWDKIHGTYLKNTLPNQLSISSGMGIKLELTLWQKLFWPLT”, the protein production entry is on record as “failed”.

In the case of “MASLLPSTGRGENIAGKLLLLIVALLMCIGVVVVYSSGAGWAEQKFSDPQYFLWRQLTFAIAGMAVIFVVGAIDYHIFRKISKLFLFVSIGLLAILLLLKLAHVIHGAARWLGFGPLKFQASDLAKYAIIFHFSRLLSEKRAYIKDLHDGYYPMLVLLMIVVALVALEPNFSTASIIAIIGFTLMFIGGIRIKYLLATASLLIPIAAVFAIAAPYRVARLVSFGGGEKELSYQVRQALLGLGNGGLFGLGLGASKQRELYLPLSYNDFVFVIIGEEYGFIGALVILLLFSGLFACGIIIAKHAPDLFGRYVAIGVTFAIVFFAFINIAVACHLMPTTGVALPFISYGGTALLFNSLGIGLLVSISRYRKKVETIERAQALLESKGGSL”, the protein production result is “failed”.

In the case of “MASLWFGLIASSALVIGAFVGVRFELPKRLLAILLSFAAGSLITALAFELFEDAYEQGGIVRAALGLLAGAIVFTALSALLDRWAQPGGKSTTKAADEIQGSPKLDTDAAASDKAATSASTRGAAGMALLAAVTLDGVPENLALGISLGEGSGGLALLAAIFVSNLPEALVGASSMKSQGRKAGPIMLLWSVCAVLLVAAVVLGAGPLSSAEPATISLPLAFAAGAVIASLADTLMPEAYEHGGPAVALSTAAGFVLSFTLSLA”, the protein production result was “failed”.

With “MASMTGGQQMGRGSEEPNPNDGYDYMQHGFDWPGLQEGGTTKYPACSGSNQSPIDINTNQLMEPSSRSGTSAVSLNGLNVDGAQADGITLTNAKVDLEQGMKVTFDQPAANLPTIEIGGTTKSFVPIQFHFHHFLSEHTINGIHYPLELHIVMQEQDPADVATAQLAVIGIMYKYSENGDAFLNSLQTQIEGKIGDGTASYGDTGVSIDNINVKTQLLPSSLKYAGYDGSLTTPGCDERVKWHVFTTPREVTREQMKLFVDVTMGAHAGADVVNNRMIQDLGDREVYKYNY”, the protein production entry is “not failed”.

For “MASQQEKKQLDERAKKGETVVPGGTGGKSFEAQQHLAEGRSRGGQTRKEQLGTEGYQQMGRKGGLSTGDKPGGEHAEEEGVEIDESKFRTKT”, the protein production result is recorded as “failed”.

As for “MASRDAQEPSLHAADPSIVRPCEQHGGVLAGSVSSHPAAAECASHTPTLETGAPCAAGSAPSAPMTDQGARSPRAADSMPASSLERDERARRIACRLPSSAIRLPAFGEAVSRPNAGSSVDATATKASLPSAGDDGLGNSREEQGTTCSEPDLHGVPENDQVEVCVGGRGILRPRSYQRQAPQRCGLPGMAPETAARPDHTARNELEEALARQRARLAEPDASGDIHGRHAG”, the protein production entry is reported as “failed”.

“MASRFQEASLVTSPSYPNAVAWSSENLIAVAAGHLVIIINPALPTGPRGLITISDAELYQIGRVRSQDLLTGGLLPSSLKRERSPCVRSLSWSEIGMSPNHGCLLAVCTAEGRVKLYRPPYSDFCAEWIEIVDISKMLYENLSSMNFGESKNPSTSLSKDQVVEHDHEEDERISSLKARKRRKTSANNINLHEKNYTDRASCSKQDSKAEHNVLEIEVYKQASNGQDRRSLPKALKKCSQEISPQTYVSREALLSSHSVAWSSLLRFSSESSCGNMLRFSLLAIGSKSGSVSIWKVHAPECYHIERSNVSPMVELTAIVQTHSSWVSTMSWGIFGCDSSNPQVVLVTGSCDGSVKIWMSNKEDLQNSVEVYKSSFFLLKEVVAVNPVQVSTLSFVVSNHYNAMHLAIGKGSGSFEVWKCEISTRKFEQIVSTNAHNQVVTGLAWSYDGRCLYSCSQDNYVRSWILCENAISEVPIPANTPGLSSTTDLPDDFLSCLGVALSPGNLAVALVRNFNVELLNPMYQARSQKAAVEFLWNGAQQSGESEDSTETVTEAILGFSKNEFANWESNILWSLKEFNYLNKPLVLWDMVAAMLAFKQSMPEFVELVLTKWLSVSYLGFHDDISMEDLVPKITKRFSDVPSRLLHILNVISRRVMLSELKTEEINRKLQGQRTNDEGEIDLWLKLLQESERELRERLVGLSFSAYLLAESSQGTISPPSWNWRPAGLALLQQWVEINRDIVHSQLETLSLEVKSSRTRSSNSTETALEEEKCPYCAAPVNFHSAEEAFCESSHQKKKKSKDKERCDESHKLERCCVSMQVCPPTPLWFCKCCNRMTLELAPETLFALPSFPSDLKSLPKSSFSKVASKPFCLFCGVLLQRKQPEFLLSASPV”: the protein production result is listed as “failed”.

Consider “MASRPSVRHPSHNHPLRGHKAQVEDEIICSGCDLDLLGAYFKCTKSECDYFLHKSCFDLPREIRHKSHPDHPLILLYSPQNNNSTYTCDACGEYGSGFTYNCSICQYDVHVGCVSVPETMKHDEHVHPLALIYKAPCPKDHIFTCDVCDETMPHNLWLYYCQKCDYGAHLHSCVAEEEEKSKKGGRGRGGEGGSGGNGVNRGRSSANSELAAMLKAQREMEQMQIALHLEMQRAKIDKKSRKHMLKMI”, for which the protein production entry is “failed”.

For the sequence “MASSSSSPTPSAAAAVSPLTEEELTLTVKWNGKEYTVRICADDSVAELKRRICLLTTVLPKRQKLLYPKIGNKLSDDSLLLSSISFKPSLKMTMIGTVEDDIIVDQAESPEIVDDFELGKEEAVDVKDKEVNKQKLRRRIDQYKINLRTPCRQGKKLLVLDIDYTLFDHRSTAENPLQLMRPYLHEFLTAAYAEYDIMIWSATSMKWVELKMTELGVLNNPNYKVTALLDHLAMITVQSDTRGIFDCKPLGLIWALLPEFYNPGNTIMFDDLRRNFVMNPQNGLTIKPFRKAHANRDTDQELVKLTQYLLTIAELSDLSSLHHSRWESFSQDNVKRRRQE”, the protein production result is recorded as “failed”.
